According to US20250090876A1 (MEDICAL COLLEGE OF WISCONSIN, published 2025):

Key:
purified CRR9 ectodomain = target: T1, purified CRR9 ectodomain (human, UniProt Q5R7B1 32-284 (Pongo abelii entry), limits assumed); assay: ELISA with purified CRR9 ectodomain
T1 construct: also called CLPTM1L ectodomain
T1 sequence: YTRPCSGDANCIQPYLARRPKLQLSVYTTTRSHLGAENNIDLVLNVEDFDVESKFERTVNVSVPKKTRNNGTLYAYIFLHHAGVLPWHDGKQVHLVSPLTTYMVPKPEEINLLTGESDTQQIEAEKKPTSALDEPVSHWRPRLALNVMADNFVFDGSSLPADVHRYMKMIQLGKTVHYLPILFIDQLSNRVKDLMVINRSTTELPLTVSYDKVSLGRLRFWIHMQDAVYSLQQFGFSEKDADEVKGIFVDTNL

[1] = target: T2, human CLPTM1L/CRR9 protein (human, UniProt Q96KA5 1-538); assay: on-cell detection of fluorescently labeled 102-5 on live Panc1 tumor cells, with or without competitors (excess 10-2 mouse ascites or excess purified CRR9 ectodomain)
T2 construct: also called Cisplatin Resistance Related Protein-9; Cleft-Lip and Palate Transmembrane Protein-Like Protein 1
T2 sequence: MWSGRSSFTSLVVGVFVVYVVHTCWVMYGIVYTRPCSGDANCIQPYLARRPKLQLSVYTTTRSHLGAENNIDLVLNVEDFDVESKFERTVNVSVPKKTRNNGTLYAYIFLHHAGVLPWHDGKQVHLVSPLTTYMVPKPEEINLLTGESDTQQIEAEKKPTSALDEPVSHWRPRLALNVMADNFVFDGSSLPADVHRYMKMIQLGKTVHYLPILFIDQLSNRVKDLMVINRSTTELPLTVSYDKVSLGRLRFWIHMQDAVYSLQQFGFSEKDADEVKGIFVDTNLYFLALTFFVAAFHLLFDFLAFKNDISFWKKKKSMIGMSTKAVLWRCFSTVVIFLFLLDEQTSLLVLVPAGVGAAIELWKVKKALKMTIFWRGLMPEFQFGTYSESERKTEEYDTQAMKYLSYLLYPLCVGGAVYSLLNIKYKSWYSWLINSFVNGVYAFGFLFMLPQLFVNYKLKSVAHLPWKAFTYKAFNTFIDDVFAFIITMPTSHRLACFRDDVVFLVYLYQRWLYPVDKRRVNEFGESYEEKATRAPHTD

mouse CLPTM1L protein = target: T3, mouse CLPTM1L protein (mouse, UniProt Q8BXA5 1-539); assay: flow cytometry on live ID8-luc mouse ovarian tumor cells (102-5 primary by the legend of FIG. 31A)
T3 construct: whole, on cells; also called the mouse protein
T3 sequence (looked up): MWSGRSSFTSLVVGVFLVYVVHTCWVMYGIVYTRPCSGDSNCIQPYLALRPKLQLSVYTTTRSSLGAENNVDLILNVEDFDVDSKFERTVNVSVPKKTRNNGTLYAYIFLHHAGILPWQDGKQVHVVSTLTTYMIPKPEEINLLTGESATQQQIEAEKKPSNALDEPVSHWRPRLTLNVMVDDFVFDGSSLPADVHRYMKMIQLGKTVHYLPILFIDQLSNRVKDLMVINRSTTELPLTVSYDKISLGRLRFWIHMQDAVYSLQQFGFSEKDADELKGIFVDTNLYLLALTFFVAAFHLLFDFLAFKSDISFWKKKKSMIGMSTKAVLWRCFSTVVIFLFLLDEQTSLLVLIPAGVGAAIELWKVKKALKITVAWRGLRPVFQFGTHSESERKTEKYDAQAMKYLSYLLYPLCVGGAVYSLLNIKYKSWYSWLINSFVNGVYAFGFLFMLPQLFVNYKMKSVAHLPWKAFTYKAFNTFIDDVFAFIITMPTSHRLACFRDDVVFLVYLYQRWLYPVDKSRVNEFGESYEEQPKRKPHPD
Protocol: (E) Final relative mean volumes of SL3 and SL3cis xenograft tumors 24 days post-inoculation. […] (F) Mean volumes of SL3 and SL3cis xenograft tumors relative to group mean volume after sorting from days 0 to 24 post-inoculation. *p<0.05, **p<0.005, ***p<0.0005. Error bars represent standard error of the mean.
Flow cytometry was conducted per AbCam protocol for indirect flow cytometry. Tumor cells were harvested by trypsinization and suspended in cold PBS, 10% FBS, 0.05% NaN₃. 100 μL of cell suspension was added to 12×75 mm polystyrene tubes. 10 μg/mL of primary antibody diluted in PBS 3% BSA was added and tubes were incubated at 4° C. in the dark for 45 minutes. After washing 3 times in cold PBS, cells were resuspended in rabbit anti-Human Fc (H&L)-Alexafluor 488 (Abcam) in PBS 3% BSA and incubated at 4 C in the dark for 30 minutes. After washing 3 times in cold PBS, cells were suspended in 500 μL cold PBS, 3% BSA, 0.05% NaN₃ and analyzed on an Accuri C6 flow cytometer. Cells were gated for live cells based on scatter and fluorescence was plotted on a histogram using Flowing Software 2 (Turku Bioimaging).

Kd (purified CRR9 ectodomain): 1 nM | binding result [1]: binds | binding result (mouse CLPTM1L protein): binds
B1: 102-5 full-length human IgG1 anti-CLPTM1L (antibody, V domains shown)
VH: EVQLLESGGGLVQPGGSLRLSCAASGFSFSSYEMNWVRQAPGKGPEWISYISSGGGTIYYADSVRGRFTISRDNSNNTLYLQMNSLRPDDTAIYYCARDRGRKWLQLLFDSWGQGTLVTVSS
VL: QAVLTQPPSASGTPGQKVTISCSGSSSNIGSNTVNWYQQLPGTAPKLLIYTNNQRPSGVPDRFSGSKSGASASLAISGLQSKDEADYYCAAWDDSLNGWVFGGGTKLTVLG
notes: also called ESS102-5
